In patent publication US6544767 one finds % inhibition (of cathepsin O2 activity, fluorimetric Z-FR-MCA assay, 0.1 µM inhibitor) data, which are given here for 1 substance.

In this assay the target is mature recombinant human cathepsin O2 (human) (UniProt P43235). Kind of assay: cell-based or functional assay.
Chain of mature recombinant human cathepsin O2 (human) (P43235 115-329): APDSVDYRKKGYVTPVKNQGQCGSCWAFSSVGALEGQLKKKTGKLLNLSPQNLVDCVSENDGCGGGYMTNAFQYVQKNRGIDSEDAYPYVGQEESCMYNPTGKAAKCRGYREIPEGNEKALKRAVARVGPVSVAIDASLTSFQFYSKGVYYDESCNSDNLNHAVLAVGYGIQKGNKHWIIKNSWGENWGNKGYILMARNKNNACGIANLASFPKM

Take “chicken cystatin (from UniProt P01038 24-139)”: the % inhibition (of cathepsin O2 activity, fluorimetric Z-FR-MCA assay, 0.1 µM inhibitor) came to 100%.
